Here are results for 14 molecules from article PMC7305236.

No end group written: not given here.

Experiment [1] concerns the target atypical chemokine receptor ACKR3 (formerly CXCR7) (human) (UniProt P25106).
Experiment [2] has as its target ACKR3 C-terminally tagged with SmBiT (human) (UniProt P25106).
The target of experiment [3] is mu opioid receptor (MOR) C-terminally tagged with SmBiT (UniProt P35372).
Experiment [4] addresses ACKR3 C-terminally tagged with SmBiT (human) (UniProt P25106). The source holds these as a separate data set.
For experiment [5], the target named is delta opioid receptor (DOR) C-terminally tagged with SmBiT (UniProt P41143).
The target in experiment [6] is kappa opioid receptor (KOR) C-terminally tagged with SmBiT (UniProt P41145).
The target in experiment [7] is ACKR3 C-terminally tagged with SmBiT (human) (UniProt P25106). The source holds these as a separate data set.
ACKR3 C-terminally tagged with SmBiT (human), sequence (P25106 whole entry): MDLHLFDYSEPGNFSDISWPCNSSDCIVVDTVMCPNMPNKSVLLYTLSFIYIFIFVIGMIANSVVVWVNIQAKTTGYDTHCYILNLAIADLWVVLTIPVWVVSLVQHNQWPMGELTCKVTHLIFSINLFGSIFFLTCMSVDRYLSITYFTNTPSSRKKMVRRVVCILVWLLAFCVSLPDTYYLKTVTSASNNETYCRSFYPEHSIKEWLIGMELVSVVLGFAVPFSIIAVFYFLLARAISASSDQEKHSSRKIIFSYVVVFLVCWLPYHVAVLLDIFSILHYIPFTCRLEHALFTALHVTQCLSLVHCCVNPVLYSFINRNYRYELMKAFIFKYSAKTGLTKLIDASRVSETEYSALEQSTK

atypical chemokine receptor ACKR3 (formerly CXCR7) (human), sequence (P25106 whole entry): as above

B1: second-generation peptide … (peptide)
peptide: FGGWMRRFR-NH2
As to B1, the Supplementary Table 5: EC50 of β-arrestin-1 recruitment to ACKR3 in experiment [1] came out at 19.1 nM.

B2: second-generation peptide … (peptide)
peptide: FGGFMRRFR-NH2
B2 yielded a Supplementary Table 5: EC50 of β-arrestin-1 recruitment to ACKR3 in experiment [1] of 16.3 nM.

B3: CXCL11 (ligand)
chain: FPMFKRGRCLCIGPGVKAVKVADIEKASIMYPSNNCDKIEVIITLKENKGQRCLNPKSKQARLIIKKVERKNF
In turn, B3 came in with a β-arrestin recruitment to ACKR3 (Fig. 4b): EC50 in experiment [2] of 2.2 nM.

B4: BAM22 (peptide)
peptide: YGGFMRRVGRPEWWMDYQKRYG
In the case of B4, the β-arrestin-1 recruitment (NanoBiT, U87 cells): EC50 in experiment [3] amounted to 10 nM; in experiment [4], 23.5 nM; in experiment [5], 367 nM; in experiment [6] it was 44.2 nM.

B5: second-generation peptide … (peptide)
peptide: FGGWMRRVR-NH2
Consider B5, for which the Supplementary Table 5: EC50 of β-arrestin-1 recruitment to ACKR3 in experiment [1] was determined as 6.16 nM.

B6: second-generation peptide … (peptide)
peptide: FGGFMRRKR-NH2
With B6, the Supplementary Table 5: EC50 of β-arrestin-1 recruitment to ACKR3 in experiment [1] worked out at 1.12 nM.

B7: second-generation peptide FGGFMRRF (peptide)
peptide: FGGFMRRF-NH2
In the case of B7, the Supplementary Table 5: EC50 of β-arrestin-1 recruitment to ACKR3 in experiment [1] was 11 nM.

B8: adrenorphin Y1F variant (peptide)
peptide: FGGFMRRV-NH2
The molecule B8 displayed a potency in β-arrestin-1 recruitment against wild-type adrenorphin (U87 cells) in experiment [7] of 10 fold.

B9: second-generation peptide FGGWMRRK (peptide)
peptide: FGGWMRRK-NH2
The molecule B9 displayed a Supplementary Table 5: EC50 of β-arrestin-1 recruitment to ACKR3 in experiment [1] of 4.39 nM.

B10: second-generation peptide FGGWMRRV (peptide)
peptide: FGGWMRRV-NH2
In the case of B10, the Supplementary Table 5: EC50 of β-arrestin-1 recruitment to ACKR3 in experiment [1] turned out to be 10.5 nM.

B11: second-generation peptide FGGWMRRF (peptide)
peptide: FGGWMRRF-NH2
With B11, the Supplementary Table 5: EC50 of β-arrestin-1 recruitment to ACKR3 in experiment [1] worked out at 19.1 nM.

B12: second-generation peptide … (peptide)
peptide: FGGWMRRKR-NH2
Turning to B12, the Supplementary Table 5: EC50 of β-arrestin-1 recruitment to ACKR3 in experiment [1] worked out at 7.34 nM.

B13: Met enkephalin (peptide)
peptide: YGGFM
On to B13, for which the β-arrestin-1 recruitment (NanoBiT, U87 cells): EC50 in experiment [3] came out at 419 nM; in experiment [5] it was 16.3 nM.

B14: second-generation peptide … (peptide)
peptide: FGGFMRRVR-NH2
B14 displayed a Supplementary Table 5: EC50 of β-arrestin-1 recruitment to ACKR3 in experiment [1] of 3.53 nM.
